This note sets out measurements from publication PMC4164012.

In this test the target is T1, recombinant E. coli L-asparaginase II (E. coli K-12 (JM109)), P00805.
T1 chain: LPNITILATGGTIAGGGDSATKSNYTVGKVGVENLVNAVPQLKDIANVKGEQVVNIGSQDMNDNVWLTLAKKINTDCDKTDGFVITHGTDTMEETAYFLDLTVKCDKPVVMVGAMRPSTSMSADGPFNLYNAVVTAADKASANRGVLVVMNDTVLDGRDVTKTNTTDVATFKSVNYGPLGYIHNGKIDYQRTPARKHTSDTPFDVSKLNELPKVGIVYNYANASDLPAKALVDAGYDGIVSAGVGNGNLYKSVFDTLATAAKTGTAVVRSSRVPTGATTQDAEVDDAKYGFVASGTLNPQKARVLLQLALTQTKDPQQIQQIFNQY
The test can be described thus: SEC; analytical HPLC gel filtration on Bio-Sep S-2000, 50 mM Tris-HCl, 10 mM NaCl, pH 7.5; 20 ul of 1.5 mg/ml injected, 1 ml/min; mass from calibration with marker proteins. The settings on record: remark: other sources report otherwise.

B1: recombinant E. coli L-asparaginase II, P00805 23-348 (enzyme)
chain: LPNITILATGGTIAGGGDSATKSNYTVGKVGVENLVNAVPQLKDIANVKGEQVVNIGSQDMNDNVWLTLAKKINTDCDKTDGFVITHGTDTMEETAYFLDLTVKCDKPVVMVGAMRPSTSMSADGPFNLYNAVVTAADKASANRGVLVVMNDTVLDGRDVTKTNTTDVATFKSVNYGPLGYIHNGKIDYQRTPARKHTSDTPFDVSKLNELPKVGIVYNYANASDLPAKALVDAGYDGIVSAGVGNGNLYKSVFDTLATAAKTGTAVVRSSRVPTGATTQDAEVDDAKYGFVASGTLNPQKARVLLQLALTQTKDPQQIQQIFNQY
On to B1, for which the stoichiometry N – broadly, a count of units in the complex or per binding partner – turned out to be 4.
